Reference: the nanobody polyreactivity screen of Harvey et al. (2022)

Test: yeast display, Sf9 membrane polyspecificity reagent, FACS + sequencing; frameworks hold sequencing errors
In short: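 After 36–48 hours of galactose induction, yeast (Saccharomyces cerevisiae BJ5465) displaying a synthetic nanobody library were stained at 4 °C for 1 hour with 10% biotinylated, detergent-solubilized Sf9 membrane reagent. Streptavidin microbeads enriched the stained cells before FACS sorting into low and high (top ~1%) gates on anti-HA and streptavidin fluorescence. Each clone's polyreactivity label reflects its gate of origin.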

| Sequence | polyreactivity (PSR sort gate) |
| --- | --- |
| QVQLVESGGGLVQAGGSLRLSCASSGSTFLRNAMGWYRHAPRKERELVAAFSLGSGSTYYADSVKGRFTISRDNAKNTVYLQMNSLKPEDTAVYYCAADVSRWLDYGYDYWGQGTQVTVSS | low polyreactivity |
| QVQLVESGGGLVQAGGSLRLSCASSGSTFPPYAMGWYRQAPGKERELVAAISYRDTGTYYADSVKGRFTISRDNAKNTVYFQMNSLKPEDTAVYYCAADYHIVYYFLYYYWGQGTQVTVSS | low polyreactivity |
| QVQLVESGGGLVQAGGSLRLSCASSGSTFPSNAMGWYRQAPGKERELVAAISRSGGSTYYADSVKGRFTISRDNAKNTVYLQMNSLKPEDTAVYYCAVQVRPNYGGTRIHRGGYDYWGQGTQVTVSS | low polyreactivity |
| QVQLVESGGGLVQAGGSLRLSCASSGSTFPVYAMGWYRQPPGKDRELVAAITSGGSTYYADSVKGRFTISRDNEKNTVSLQMNIRKPEDTAVYYCNADGYLSYAFDYWGQGTQVTVSS | low polyreactivity |
| QVQLVESGGGLVQAGGSLRLSCASSGSTFVTYAMGWYRQAPGKERELVAAITEDGASTYYADSVKGRFTISRDNAKNTVYLQMNSLKPEDTAVYYCAADPTYWPVWYVLYDYWGQGTQVTVSS | low polyreactivity |
| QVQLVESGGGLVQAGGSLRLSCASSGSTFYFNAMGWSRQAPGKERELVAGNSSGGSTYYADSVKGRFTISRDNAKNTVYLQMNSLKPEDTAVYYCAADSDTFYYTGYDYDYWGQGTQVTVSS | low polyreactivity |
| QVQLVESGGGLVQAGGSLRLSCASSGSTFYHYAMVWYRQAPGKERELVAAISWSGGSTYYADSVKGRFTISRDNAKNTVYLQMNSLKPEDTAVYYCAARGRARQRTSFEYWGQGTQVTVSS | high polyreactivity |
| QVQLVESGGGLVQAGGSLRLSCASSGSTFYNNAMGWYRPAPGKDRELVAAISSGGGTYYADSVKGRFTISRDNAKNTVYLQMNSLKPEDTAVYYCAADFANTTHWGRIKRYDYWGQGTQVTVSS | low polyreactivity |
| QVQLVESGGGLVQAGGSLRLSCASSGSTFYTNAMGWYRQAPGKESEFVDAISWSGSSTYADSVKGRFTISRDNAKITVYLQMNSLKPEDTAVYYCAKATSSLYHYRYDYWGQGTQVTVSS | low polyreactivity |
| QVQLVESGGGLVQAGGSLRLSCASSGSTWWYAMGWYRQAPGKEMELVATISYSGGSTYYADSVKGRFTISRDNAKNSVYLQMNSLKPEDTAVYYCAAKKWTAVRRDFWGQGTQVTVSS | high polyreactivity |
| QVQLVESGGGLVQAGGSLRLSCASSGYTFYAYAMGWYRQAPGKERELVAAISGSGGNTRYADSVKGRFTISRDNAKNTVYLQMNILKPEDTAVYYCAKRIIRSPFGAYGYWGQGTQVTVSS | high polyreactivity |
| QVQLVESGGGLVQAGGSLRLSCATSGRTFWFYAMGWYRQAPGKERELVAAISSGGSTNYADSVKGRFTISRDNAKNTVYLQMNSLKPEVTAVYYCAKVGNIPYGTRYYSNRYDYWGQGTQVTVSS | low polyreactivity |
| QVQLVESGGGLVQAGGSLRLSCAVSGFNFPYYAMGWYRQAPGKERELVAAINQRGGSTYYADSVKGRFTISRDNAKNTVYLQMNSLKPEDTAVYYCAADRHSKTYYYSYGYWGQGTQVTVSS | high polyreactivity |
| QVQLVESGGGLVQAGGSLRLSCDASGFIFWWYAMGWYRQAPGKEREFVAYISWSGARTYYADSVKGRFTISRDNAKNTVYLLMNSLKQEDTAVYYCNADRIGRYYQSYGGGHMDYWGQGTQVNVSS | high polyreactivity |
| QVQLVESGGGLVQAGGSLRLSCDASGFIFYYNAMGWYRQAPGKESELVAGISWDGSTYYADSVKGRFTISRDNAKNTVYLQMNSLKPEETAVYYCAAALLDDYFDLFIFGYWGQGTQVTVSS | low polyreactivity |
| QVQLVESGGGLVQAGGSLRLSCDASGFTFTRNAMGWYRQAPGKERELVDAISKRGGTTYYADSVKGRFTISRDYAKNTVYLQMNTLKPEDTSVYYCAKDGGITGGYWGQGTQVTVSS | high polyreactivity |
| QVQLVESGGGLVQAGGSLRLSCDASGGTFPYYAMGWYRQATGKERELVPDISGTDGSTYYADSVKGRFTISRDNANYTVYLQMNSLKPEDTAVYYCNADPHWWYWDYDYWGQGTQVTVSS | high polyreactivity |
| QVQLVESGGGLVQAGGSLRLSCDASGITFLNYAMGWYRQAPGKERELVAAIDTRGGRTNYADSVKGRFTISRDNAKNTVYLQMNSLKPEDTAVYYCAADPFYWYRSVRGEYWGQGTQVTVSS | low polyreactivity |
| QVQLVESGGGLVQAGGSLRLSCDASGITFYSYAMGWYRQAPGKEREFVAAITRGGGITSYADSVKGRFTISRDNAKNTVYLQMNSLKPEDTAVYYCAVYTYHYGRSTYYKYDYWGQGTQVTVSS | high polyreactivity |
| QVQLVESGGGLVQAGGSLRLSCDASGITVAGYAMGWYRHAPGKEWELVAAISRGGSTYYADSVKGRFTISRDNAKNTVYLQMNSLKPEDTAVYYCNTDDQQGYFTYTGWNYNYWGQGTQVSVSS | high polyreactivity |
| QVQLVESGGGLVQAGGSLRLSCDASGLIFSWYAMGWYRQPPGKERELVAAISKGGGSTYYADSVKGRFTISRDNAKITVYLQMNSLKPEDTAVYYCAAASSYGYGYWGQGTQVTVSS | high polyreactivity |
| QVQLVESGGGLVQAGGSLRLSCDASGLNMYKNGMGWYRQAPGKERELVAVISRSGCRTYYADSVKGRFTISRDTAKNTVYVQMNSLKPEDTAVYYCAARQYGPRYTYYYWGQGTQVTVSS | high polyreactivity |

| Sequence | polyreactivity (PSR sort gate) |
| --- | --- |
| QVQLVESGGGLVQAGGSLRLSCDASGLTFAYYAMGWYRQEPGKERELVADISWNGGRTYYSDSVKGRFTISGYNAKNTVYLQMNSLKPEDSAVYYCAAQVTSSFYWGQGTQVTVSS | high polyreactivity |
| QVQLVESGGGLVQAGGSLRLSCDASGLTFTRNAMGWYRPAPGKERELVAAITSTGSTNYADSVKGRFTISRDNAKNTVYLQMNSLKPEDTAVYYCNARNAYYDDNYWGQGTQVTVSS | low polyreactivity |
| QVQLVESGGGLVQAGGSLRLSCDASGNTFLWYAMGWYRQAPGKERELVAAITYSGGSTYYADSVKGRFTISRDNAKITVYLQMNSLKPEDTARYYCNADYFGYDYVEYGYWGQGTQVTVSS | low polyreactivity |
| QVQLVESGGGLVQAGGSLRLSCDASGPIFAWNGMGWYRPAPGKERELVAVITSGGNTNYADSVKGRFTFSLDNAKNTVFIQMNSLKPEDTAVYDCATKGYAKRTRFWSHYDYWGQGTQVNVSS | high polyreactivity |
| QVQLVESGGGLVQAGGSLRLSCDASGRICGTNAMGWYRQAPGKERELVADITSGGSTNYADSVKGRFTISRDYAKNTVYVQMNSLKPEDTAVYYCAADVIGDLRWYRDEYWGQGTQVTVSS | low polyreactivity |
| QVQLVESGGGLVQAGGSLRLSCDASGRIFDANVMGWYRQAPGKERELVAAISSGGRTKYADSVKGRFTISRDNAKNTVYLQMNSLKPEDTAVYYCNADYRNDWGTPLWYAYNYWGQGTQVTVSS | low polyreactivity |
| QVQLVESGGGLVQAGGSLRLSCDASGRIFDYYAMGWYRQAPGKEMELVAAISTSGGSTYYADSVKGRFTISRDNAKNTVYLQMTRLKPEDTAVYYWAKDITDTYPGLDYDYWGQGTQVTVSS | low polyreactivity |
| QVQLVESGGGLVQAGGSLRLSCDASGRIFFWYAMGWYRQAPGKERELVAGITSAGSTNYADSVKGRFTISRDNAKNTVYLQMNSLKPEDTSVYFCNTVDSIPIGSGLYYYWGQGTQVTVSS | low polyreactivity |
| QVQLVESGGGLVQAGGSLRLSCDASGRIFRVYAMGWYRQAHGKERQLVAAIRWTGGSTYYADSVKGRFKISRDNAKNTVYLQMNSLKPEDTAVYYCAAGRYYSDGSRTIYDYWGQGTQVTVSS | low polyreactivity |
| QVQLVESGGGLVQAGGSLRLSCDASGRIFVRYTMGWYRQATGKERELVAAITRSGGTYYADSVKGRFTISRDNATNTVYLQMNSLKPEDTAVYYCAADSWLSLWYEYWGQGTQVTVSS | low polyreactivity |
| QVQLVESGGGLVQAGGSLRLSCDASGRIFYINALGWYRQAPGKERELVASITGSGDSTYYADSVKGRFTISRDNAKNTVYLQMNILKPEDTAVYYCAARTYYYYGPRYYYWGQGTQVTVSS | low polyreactivity |
| QVQLVESGGGLVQAGGSLRLSCDASGRTFAGYAMGWYRQAPGKERELVAAITTSGGRTYYADSVKGRFTISRDNAKNTVYLQMNSLKPEDTAVYDCNVASKGRYARYAAEYGSWGQGTQVTVSS | high polyreactivity |
| QVQLVESGGGLVQAGGSLRLSCDASGRTFGLNAMGWYRQAPGKERDLVAAISSSGGSTYYADSVKWRFTISRDNAKNTVYLQMNRLKPEDNAVYYCAKVLYRYGNDYYYWGQGTQVTVSS | high polyreactivity |
| QVQLVESGGGLVQAGGSLRLSCDASGRTFGNNAMGWYRQAPGKERELVASISSSGGTNYADSVKGRFTISRDNAKNTVYVQLNSLKPEDTAVYYCAKRKFTARQRYNYWGQGTQVTVSS | high polyreactivity |
| QVQLVESGGGLVQAGGSLRLSCDASGRTFIGYAMGWYRQAPGKERELVAAINWSGARTYYADSVKGRFTISRDNAKNTVYLQMNSLKPEDTAVYYCAAVPVTSQTKYGYWGQGTQVTVSS | high polyreactivity |
| QVQLVESGGGLVQAGGSLRLSCDASGRTFLRNTMGWYRQAPGKERELVAAISRSGATTYYADSVKGRFTISRDNAKNTVYLQMNTLKPEDTADYYCAAAYRGREVEYNSWGQGTQVTVSS | high polyreactivity |
| QVQLVESGGGLVQAGGSLRLSCDASGSIFDLNAMGWYRQAPGKERELVAAISSGGGTNYADSVKGRFTISRDNAKNTVYLQMYSLKPEDTAVYYCAVGSTRDGVYLGQGTQVTVSS | high polyreactivity |
| QVQLVESGGGLVQAGGSLRLSCDASGSIFVKNAMGWYRQAPGKERELVAVITIRTATTYYADSVKGRFTISRDNAKNTVYLQMNSLKPEDTAVYYCASAKRQRGYLQREGNYWGQGTQVTVSS | low polyreactivity |
| QVQLVESGGGLVQAGGSLRLSCDASGSIFYPYAMGWYRQAPGKERELVASISWSGGSTRYADSVKGRFTISRDHAKNTVYLQMNSLKPEDTAVYYCAARYILSKYGSGVRYYYWGQGTQVTVSS | high polyreactivity |
| QVQLVESGGGLVQAGGSLRLSCDASGSIFYYNAMGWYRQAPGKERELVAAISVSGGSTYYADSVKGRFTISRDNAKNTVYLQMNSLKPEDTAVYYCAAEWLYYYWLPGRADYLEYDYWGQGTQVTVSS | low polyreactivity |
| QVQLVESGGGLVQAGGSLRLSCDASGSISIGYTMGWYRQAPGKERELVATISWSGGNTYYADSVKGRFTISRDNAKNTVYLQMNSLKPEDTAVYYCAARWYYYPLLYDYWGQGTQVTVSS | low polyreactivity |
